In experiment [1] the target is T1, recombinant human CD38 (SPR antigen of Example 2) (human, UniProt P28907 43-300). In words: SPR. (Surface plasmon resonance follows binding to a sensor surface in real time, without labels.)
In experiment [2] the target is T2, human CD3 (SPR antigen of Example 2) (human).
T2 chain: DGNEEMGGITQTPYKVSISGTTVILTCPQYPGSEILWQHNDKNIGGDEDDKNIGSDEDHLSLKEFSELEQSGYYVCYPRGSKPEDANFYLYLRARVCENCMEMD
As to the kind of experiment: SPR; KD rounded to integer per the table's title.

Experiment [3] deals with T2, human CD3 (SPR antigen of Example 2). As to the kind of experiment: SPR; KD rounded to integer; the cell gives two values for mid/low, the first taken as the CD3mid construct.
For experiment [4], the target named is T1, recombinant human CD38 (SPR antigen of …). The experiment is described as above.
For experiment [5] the target is unchanged. As to the kind of experiment: SPR against recombinant protein; the cell gives two values for mid/low, the first taken as the CD3mid construct.
The target of experiment [6] is T3, human CD38 expressed on the surface of recombinant murine preB::300.19 cells (human, UniProt P28907 1-300).
T3 construct: whole, on cells; also called hCD38-expressing cells; cells expressing human CD38
As to the kind of experiment: flow cytometry on hCD38-expressing murine preB::300.19 cells. Background: A flow cytometer gives signals particle by particle.

The target of experiment [7] is T4, human CD28 (SPR antigen of Example 2) (human, UniProt P10747 19-152). As to the kind of experiment: SPR; KD rounded to integer; the cell gives two values for mid/low, the first taken as the CD3mid construct.
The target of experiment [8] is T5, cynomolgus monkey CD38 expressed on the surface of recombinant murine preB::300.19 cells (cynomolgus monkey, UniProt Q5VAN0 1-301).
T5 construct: whole, on cells; also called cCD38-expressing cells; cells expressing cynomolgus CD38
As to the kind of experiment: flow cytometry on cCD38-expressing murine preB::300.19 cells, apparent KD (called EC50 in paragraph 336).

Experiment [9] addresses T3, human CD38 expressed on the surface of …. As to the kind of experiment: flow cytometry on hCD38-expressing murine preB::300.19 cells, apparent KD (called EC50 in paragraph 336).
The target of experiment [10] is T5, cynomolgus monkey CD38 expressed on the …. As to the kind of experiment: flow cytometry on cCD38-expressing murine preB::300.19 cells.
The next experiment has as its target T6, hCD38-his (SEQ ID NO: 2) (human, UniProt P28907 45-300).
T6 construct: also called human CD38-histag (ID2); soluble extracellular domain of humanCD38
In words: SPR (summary table; Table K value rounded).

Experiment [11] addresses T4, human CD28 (SPR antigen of Example 2). As to the kind of experiment: SPR; KD rounded to integer; the cell gives two values for mid/low, the second taken as the CD3low construct.
Experiment [12] deals with T2, human CD3 (SPR antigen of Example 2). The description is as above.
Experiment [13] concerns the target T1, recombinant human CD38 (SPR antigen of …). Described as above.
For experiment [14] the target is unchanged. In words: SPR against recombinant protein; the cell gives two values for mid/low, the second taken as the CD3low construct.

Changes are numbered by the printed parent chain.

B1: CD38HHY1370xCD28supxCD3mid trispecific binding protein (other)
light 1: DIVMTQTPLSLSVTPGQPASISCKSSQSLVHNNANTYLSWYLQKPGQSPQSLIYKVSNRFSGVPDRFSGSGSGTDFTLKISRVEAEDVGVYYCGQGTQYPFTFGSGTKVEIKGQPKAAPDIQMTQSPSSLSASVGDRVTITCQASQNIYVWLNWYQQKPGKAPKLLIYKASNLHTGVPSRFSGSGSGTDFTLTISSLQPEDIATYYCQQGQTYPYTFGQGTKLEIKTKGPSRTVAAPSVFIFPPSDEQLKSGTASVVCLLNNFYPREAKVQWKVDNALQSGNSQESVTEQDSKDSTYSLSSTLTLSKADYEKHKVYACEVTHQGLSSPVTKSFNRGEC
heavy 1: QVQLVQSGAEVVKPGASVKVSCKASGYTFTSYYIHWVRQAPGQGLEWIGSIYPGNVNTNYAQKFQGRATLTVDTSISTAYMELSRLRSDDTAVYYCTRSHYGLDWNFDVWGKGTTVTVSSSQVQLVESGGGVVQPGRSLRLSCAASGFTFTKAWMHWVRQAPGKQLEWVAQIKDKSNSYATYYADSVKGRFTISRDDSKNTLYLQMNSLRAEDTAVYYCRGVYYALSPFDYWGQGTLVTVSSRTASTKGPSVFPLAPCSRSTSESTAALGCLVKDYFPEPVTVSWNSGALTSGVHTFPAVLQSSGLYSLSSVVTVPSSSLGTKTYTCNVDHKPSNTKVDKRVESKYGPPCPPCPAPEAAGGPSVFLFPPKPKDTLMISRTPEVTCVVVDVSQEDPEVQFNWYVDGVEVHNAKTKPREEQFNSTYRVVSVLTVLHQDWLNGKEYKCKVSNKGLPSSIEKTISKAKGQPREPQVCTLPPSQEEMTKNQVSLSCAVKGFYPSDIAVEWESNGQPENNYKTTPPVLDSDGSFFLVSKLTVDKSRWQEGNVFSCSVMHEALHNHYTQKSLSLSLG
heavy 2: QVQLVESGGGVVQPGRSLRLSCAASGFTFSSYGMHWVRQAPGKGLEWVAVIWYDGSNKYYADSVKGRFTISGDNSKNTLYLQMNSLRAEDTAVYYCARMFRGAFDYWGQGTLVTVSSASTKGPSVFPLAPCSRSTSESTAALGCLVKDYFPEPVTVSWNSGALTSGVHTFPAVLQSSGLYSLSSVVTVPSSSLGTKTYTCNVDHKPSNTKVDKRVESKYGPPCPPCPAPEAAGGPSVFLFPPKPKDTLMISRTPEVTCVVVDVSQEDPEVQFNWYVDGVEVHNAKTKPREEQFNSTYRVVSVLTVLHQDWLNGKEYKCKVSNKGLPSSIEKTISKAKGQPREPQVYTLPPCQEEMTKNQVSLWCLVKGFYPSDIAVEWESNGQPENNYKTTPPVLDSDGSFFLYSKLTVDKSRWQEGNVFSCSVMHEALHNHYTQKSLSLSLG
light 2: AIQMTQSPSSLSASVGDRVTITCRASQGIRNDLGWYQQKPGKAPKLLIYAASSLQSGVPSRFSGSGSGTDFTLTISGLQPEDSATYYCLQDYIYYPTFGQGTKVEIKRTVAAPSVFIFPPSDEQLKSGTASVVCLLNNFYPREAKVQWKVDNALQSGNSQESVTEQDSKDSTYSLSSTLTLSKADYEKHKVYACEVTHQGLSSPVTKSFNRGEC
Regarding B1, the Kd in experiment [1] was 1 nM; in experiment [2] it was 48 nM.

B2: CD38VH1xCD28supxCD3mid trispecific binding protein (other)
light 1: B1 light 1
heavy 1: B1 heavy 1
heavy 2: QVQLVQSGAEVVKPGASVKVSCKASGYTFTSYAMHWVKEAPGQRLEWIGYIYPGQGGTNYNQKFQGRATLTADTSASTAYMELSSLRSEDTAVYFCARTGGLRRAYFTYWGQGTLVTVSSASTKGPSVFPLAPCSRSTSESTAALGCLVKDYFPEPVTVSWNSGALTSGVHTFPAVLQSSGLYSLSSVVTVPSSSLGTKTYTCNVDHKPSNTKVDKRVESKYGPPCPPCPAPEAAGGPSVFLFPPKPKDTLMISRTPEVTCVVVDVSQEDPEVQFNWYVDGVEVHNAKTKPREEQFNSTYRVVSVLTVLHQDWLNGKEYKCKVSNKGLPSSIEKTISKAKGQPREPQVYTLPPCQEEMTKNQVSLWCLVKGFYPSDIAVEWESNGQPENNYKTTPPVLDSDGSFFLYSKLTVDKSRWQEGNVFSCSVMHEALHNHYTQKSLSLSLG
light 2: DIVLTQSPATLSLSPGERATISCRASQSVSSYGQGFMHWYQQKPGQPPRLLIYGASSRATGIPARFSGSGSGTDFTLTISPLEPEDFAVYYCQQNKEDPWTFGGGTKLEIKRTVAAPSVFIFPPSDEQLKSGTASVVCLLNNFYPREAKVQWKVDNALQSGNSQESVTEQDSKDSTYSLSSTLTLSKADYEKHKVYACEVTHQGLSSPVTKSFNRGEC
notes: also called antiCD38_C2-CD38-1_VH1-VL1xCD28supxCD3mid
As usually defined, the EC50 is the concentration needed to bring the measured effect to its halfway point. Consider B2, for which the Kd in experiment [3] turned out to be 21 nM; in [4] it was 4 nM; in [5], 4 nM. In addition, the 50% effective concentration (EC50) in experiment [6] came to 11 nM.

B3: CD38VH1xCD28cvnxCD3mid trispecific binding protein (other)
VH 1: QVQLQESGPGLVKPSQTLSLTCTVSGFSLSDYGVHWVRQPPGKGLEWLGVIWAGGGTNYNPSLKSRKTISKDTSKNQVSLKLSSVTAADTAVYYCARDKGYSYYYSMDYWGQGTTVTVS
VL 1: DIVLTQSPASLAVSPGQRATITCRASESVEYYVTSLMQWYQQKPGQPPKLLIFAASNVESGVPARFSGSGSGTDFTLTINPVEANDVANYYCQQSRKVPYTFGQGTKLEIK
VH 2: QVQLVESGGGVVQPGRSLRLSCAASGFTFTKAWMHWVRQAPGKQLEWVAQIKDKSNSYATYYADSVKGRFTISRDDSKNTLYLQMNSLRAEDTAVYYCRGVYYALSPFDYWGQGTLVTVSS
VL 2: DIVMTQTPLSLSVTPGQPASISCKSSQSLVHNNANTYLSWYLQKPGQSPQSLIYKVSNRFSGVPDRFSGSGSGTDFTLKISRVEAEDVGVYYCGQGTQYPFTFGSGTKVEIK
VH 3: QVQLVQSGAEVVKPGASVKVSCKASGYTFTSYAMHWVKEAPGQRLEWIGYIYPGQGGTNYNQKFQGRATLTADTSASTAYMELSSLRSEDTAVYFCARTGGLRRAYFTYWGQGTLVTVSS
VL 3: DIVLTQSPATLSLSPGERATISCRASQSVSSYGQGFMHWYQQKPGQPPRLLIYGASSRATGIPARFSGSGSGTDFTLTISPLEPEDFAVYYCQQNKEDPWTFGGGTKLEIK
B3: the Kd in [7] worked out at 18 nM; in [3] it was 23 nM; in experiment [4] it was 4 nM; in experiment [5], 4 nM; in [8] it was 7.5 nM; in experiment [9] it was 4.4 nM. For the same molecule, the entries for the “fold lower apparent affinity than the parental antiCD38_C2-CD38-1_VH1-VL1 antibody” value in [6] and in experiment [10] were 9 fold and 7.5 fold, respectively.

B4: antiCD38_C2-CD38-1_VH3-VL3 (antibody, human IgG1, kappa, V domains shown)
VH: B3 VH 3 with Y32F, A33N, Q55N
VL: DIVLTQSPATLSLSPGERATISCRASESVDSYGNGFMHWYQQKPGQPPRLLIYLASSRATGIPARFSGSGSGTDFTLTISPLEPEDFAVYYCQQNKEDPWTFGGGTKLEIKR
The molecule B4 displayed a Kd in the experiment with hCD38-his (SEQ ID NO: 2) of 0.48 nM.

B5: CD38VH1xCD28supxCD3low trispecific binding protein (other)
VH 1: QVQLVQSGAEVVKPGASVKVSCKASGYTFTSYYIHWVRQAPGQGLEWIGSIYPGNVNTNYAQKFQGRATLTVDTSISTAYMELSRLRSDDTAVYYCTRSHYGLDWNFDVWGKGTTVTVSS
VL 1: DIQMTQSPSSLSASVGDRVTITCQASQNIYVWLNWYQQKPGKAPKLLIYKASNLHTGVPSRFSGSGSGTDFTLTISSLQPEDIATYYCQQGQTYPYTFGQGTKLEIK
VH 2: B3 VH 2 with Q44G, D76N
VL 2: B3 VL 2 with A34G, S51L, S105G
VH 3: B3 VH 3
VL 3: B3 VL 3
notes: also called CD38VH1xCD28supxCD3mid/low
Turning to B5, the Kd worked out at 4 nM in experiment [11], 76 nM in experiment [12], 6 nM in experiment [13] and 6 nM in [14].

B6: CD38VH1xCD28cvnxCD3low trispecific binding protein (other)
VH 1: B3 VH 1
VL 1: B3 VL 1
VH 2: B3 VH 2 with Q44G, D76N
VL 2: B3 VL 2 with A34G, S51L, S105G
VH 3: B3 VH 3
VL 3: B3 VL 3
notes: also called CD38VH1xCD28cvnxCD3mid/low
As to B6, the Kd in [11] stood at 34 nM; in experiment [12], 59 nM; in experiment [13], 6 nM; in experiment [14], 6 nM.
